According to article PMC11813584, “An odorant-binding protein functions in fire ant social immunity interfacing with innate immunity” (Open Biology, 2025):

Target: T1, SiOBP15, purified, His-tag removed (Solenopsis invicta)
T1 construct: the ORF cloned into pET28a; also called purified SiOBP15; SiOBP15 protein (ligand); source: E. coli BL21, purified (Ni-Sepharose Cl-6B agarose), His-tag removed by protease cleavage
Experiment: SPR; open SPR; SiOBP15 coupled to a COOH chip until saturation, SiApoLp-III or SiFABP5 titrated as analyte; one-to-one model (TraceDrawer)
Details: both partners purified

B1: SiApoLp-III, purified, His-tag removed (natural protein)
chain: EQSGTQPQLSDYIRDAQTAISSLGTQIQEHLNLPNQEELANTFKEQSTNFANNVQAYLQNITDEVKAKSPELEDFWTNMKTKLSEAVDNLHINPETTEQVNQLRAKFQEGVQTLVTESENAAKTISENSGKVQESIAKITKQAIDIAVKASQNLNQQLQQATTPQP
With B1 as the binder, how does the Kd read?
The Kd was 713 nM.
